Laboratory results: US20180009871A1 (INTARCIA THERAPEUTICS, published 2018)
Where no end group is shown, it is not given here. [ ]: non-standard residue; d: D form. Formula III = not defined here; Formula II = not defined here; Aib = CC(C)(N)C(=O)O

Tests used:
Assay in all cases: cell-based or functional assay
[1] = molecular target: human glucagon receptor (GCGR) (human, UniProt P47871 26-477)
[2] = molecular target: T1, human GLP-1 receptor (GLP-1R) (human, UniProt P43220 24-463)
[3] = molecular target: T1, human GLP-1 receptor (GLP-1R); remark: listed apart in the source

T1 sequence (P43220 24-463): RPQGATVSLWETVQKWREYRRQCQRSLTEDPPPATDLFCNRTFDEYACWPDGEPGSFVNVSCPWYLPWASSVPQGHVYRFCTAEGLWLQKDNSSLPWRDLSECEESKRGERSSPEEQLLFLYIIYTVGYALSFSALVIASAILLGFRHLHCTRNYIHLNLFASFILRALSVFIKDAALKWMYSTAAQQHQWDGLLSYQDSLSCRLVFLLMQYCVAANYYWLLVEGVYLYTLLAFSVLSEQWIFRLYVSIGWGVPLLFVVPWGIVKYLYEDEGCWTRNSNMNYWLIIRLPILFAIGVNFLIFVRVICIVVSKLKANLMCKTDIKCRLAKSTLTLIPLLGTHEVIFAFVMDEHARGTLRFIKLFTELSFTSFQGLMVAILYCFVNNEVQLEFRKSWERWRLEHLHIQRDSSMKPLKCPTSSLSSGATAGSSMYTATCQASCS

Binder: YSQGTFTSDYSKYLDAARAQEFVKWLEDEPKSK(Formula III)SPPPS-NH2 (reading uncertain) [Compound B37]
- GluR pEC 50 [1]: 10.1 pEC50
- GLP-1R pEC 50 [2]: 6.2 pEC50

Binder: YSQGTFTSDYSKYLDAARAQEFVK(Formula II)WLEDEPKSKSPPPS-NH2 (reading uncertain) [Compound B34]
- GluR pEC 50 [1]: 9.8 pEC50
- GLP-1R pEC 50 [2]: < 6 pEC50

Binder: YSQGTFTSDK(Formula III)SKYLDAARAQEFVKWLEDEPKSKSPPPS-NH2 (reading uncertain) [Compound B40]
- GluR pEC 50 [1]: 11.9 pEC50
- GLP-1R pEC 50 [2]: 7.2 pEC50

Binder: YSHGTFTSDYTRLLESKRAQEFVKWLEDEPSSGAPPPS [Compound A98]
- hGLP1 pEC50 (cAMP) [3]: < 9 pEC50

Binder: YSHGTFTSDK(Formula II)SKYLD[Aib]KRAQEFVIWLEDEPSSGAPPPS-OH (reading uncertain) [Compound B27]
- GluR pEC 50 [1]: 11.5 pEC50
- GLP-1R pEC 50 [2]: 6.6 pEC50

Binder: WSQGTFTSDK(Formula II)SKYLD[Aib]KRAQEFV[Aib]WLEDEPSSGAPPPS-OH (reading uncertain) [Compound B20]
- GluR pEC 50 [1]: 11.1 pEC50
- GLP-1R pEC 50 [2]: 6.5 pEC50

Binder: WSQGTFTSDYSKYLDK(Formula III)KRAQEFV[Aib]WLEDEPSSGAPPPS-OH (reading uncertain) [Compound B23]
- GluR pEC 50 [1]: 9.5 pEC50
- GLP-1R pEC 50 [2]: 6.5 pEC50

Binder: YSHGTFTSDYSKYLDK(Formula II)ARAQEFVKWLEDEPSSGAPPPS-NH2 (reading uncertain) [Compound B43]
- GluR pEC 50 [1]: 11.1 pEC50
- GLP-1R pEC 50 [2]: < 6 pEC50

Binder: YSHGTFTSDYSKYLD[Aib]KRAQEFVIWLEDEPSSK(Formula II)APPPS-OH (reading uncertain) [Compound B25]
- GluR pEC 50 [1]: 10.5 pEC50
- GLP-1R pEC 50 [2]: < 6 pEC50

Binder: YSHGTFTSDYSKYLD[Aib]KRAQK(Formula III)FVIWLEDEPSSGAPPPS-OH (reading uncertain) [Compound B30]
- GluR pEC 50 [1]: 9.7 pEC50
- GLP-1R pEC 50 [2]: 7 pEC50

Binder: YSHGTFTSDYSKYLDSARAQEFVKWLEDEPSSK(Formula II)APPPS-NH2 (reading uncertain) [Compound B41]
- GluR pEC 50 [1]: 10.6 pEC50
- GLP-1R pEC 50 [2]: < 6 pEC50

Binder: YSHGTFTSDYSKYLD[Aib]KRAQEFVIWLEDEPSSK(Formula III)APPPS-OH (reading uncertain) [Compound B29]
- GluR pEC 50 [1]: 9.8 pEC50
- GLP-1R pEC 50 [2]: 7 pEC50

Binder: WSQGTFTSDK(Formula III)SKYLD[Aib]KRAQEFV[Aib]WLEDEPSSGAPPPS-OH (reading uncertain) [Compound B24]
- GluR pEC 50 [1]: 8.2 pEC50
- GLP-1R pEC 50 [2]: 6.8 pEC50

Binder: WSQGTFTSDYSKYLDK(Formula II)KRAQEFV[Aib]WLEDEPSSGAPPPS-OH (reading uncertain) [Compound B19]
- GluR pEC 50 [1]: 10.6 pEC50
- GLP-1R pEC 50 [2]: 6.3 pEC50

Binder: YSHGTFTSDK(Formula II)SKYLDSARAQEFVKWLEDEPSSGAPPPS-NH2 (reading uncertain) [Compound B44]
- GluR pEC 50 [1]: 11.9 pEC50
- GLP-1R pEC 50 [2]: 7.2 pEC50

Binder: YSHGTFTSDYSKYLDK(Formula III)KRAQEFVIWLEDEPSSGAPPPS (reading uncertain) [Compound B31]
- GluR pEC 50 [1]: 10.6 pEC50
- GLP-1R pEC 50 [2]: 7.4 pEC50

Binder: YSHGTFTSDYSKYLDSARAQEFVK(Formula III)WLEDEPSSGAPPPS-NH2 (reading uncertain) [Compound B46]
- GluR pEC 50 [1]: 9.5 pEC50
- GLP-1R pEC 50 [2]: < 6 pEC50

Binder: YSHGTFTSDYSKYLDAARAQEFVKWLEDEPSSGAPPPS [Compound A97]
- hGLP1 pEC50 (cAMP) [3]: < 9 pEC50

Binder: YSHGTFTSDK(Formula III)SKYLD[Aib]KRAQEFVIWLEDEPSSGAPPPS-OH (reading uncertain) [Compound B32]
- GluR pEC 50 [1]: 9.4 pEC50
- GLP-1R pEC 50 [2]: 7.8 pEC50

Binder: YSHGTFTSDYSKYLDSARAQEFVKWLEDEPSSK(Formula III)APPPS-NH2 (reading uncertain) [Compound B45]
- GluR pEC 50 [1]: 9.8 pEC50
- GLP-1R pEC 50 [2]: < 6 pEC50

Binder: YSQGTFTSDYSKYLDK(Formula II)ARAQEFVKWLEDEPKSKSPPPS-NH2 (reading uncertain) [Compound B35]
- GluR pEC 50 [1]: 11.1 pEC50
- GLP-1R pEC 50 [2]: 6.6 pEC50

Binder: YSQGTFTSDYSKYLDAARAQEFVKWLEDEPKSK(Formula II)SPPPS-NH2 (reading uncertain) [Compound B33]
- GluR pEC 50 [1]: 10.6 pEC50
- GLP-1R pEC 50 [2]: < 6 pEC50

Binder: YSQGTFTSDK(Formula II)SKYLDAARAQEFVKWLEDEPKSKSPPPS-NH2 (reading uncertain) [Compound B36]
- GluR pEC 50 [1]: 11.5 pEC50
- GLP-1R pEC 50 [2]: 8.1 pEC50

Binder: YSQGTFTSDYSKYLDAARAQEFVK(Formula III)WLEDEPKSKSPPPS-NH2 (reading uncertain) [Compound B38]
- GluR pEC 50 [1]: 9.6 pEC50
- GLP-1R pEC 50 [2]: 6 pEC50

Binder: YSHGTFTSDK(Formula III)SKYLDSARAQEFVKWLEDEPSSGAPPPS-NH2 (reading uncertain) [Compound B48]
- GluR pEC 50 [1]: 9.2 pEC50
- GLP-1R pEC 50 [2]: < 6 pEC50

Binder: YSHGTFTSDYSKYLD[Aib]KSAQEFV[Aib]WLEDEPSSK(Formula III)APPPS-OH (reading uncertain) [Compound B13]
- GluR pEC 50 [1]: 9.2 pEC50
- GLP-1R pEC 50 [2]: < 6 pEC50

Binder: YSHGTFTSDYSKYLDK(Formula II)KRAQEFVIWLEDEPSSGAPPPS (reading uncertain) [Compound B26]
- GluR pEC 50 [1]: 11 pEC50
- GLP-1R pEC 50 [2]: < 6 pEC50

Binder: YSHGTFTSDYSKYLD[Aib]KSAQEFVK(Formula III)WLEDEPSSGAPPPS-OH (reading uncertain) [Compound B14]
- GluR pEC 50 [1]: 9.3 pEC50
- GLP-1R pEC 50 [2]: < 6 pEC50

Binder: YSHGTFTSDK(Formula III)SKYLD[Aib]KSAQEFV[Aib]WLEDEPSSGAPPPS-OH (reading uncertain) [Compound B16]
- GluR pEC 50 [1]: 8.5 pEC50
- GLP-1R pEC 50 [2]: 8.3 pEC50

Binder: WSQGTFTSDYSKYLD[Aib]KRAQEFV[Aib]WLEDEPSSK(Formula II)APPPS-OH (reading uncertain) [Compound B17]
- GluR pEC 50 [1]: 10.5 pEC50
- GLP-1R pEC 50 [2]: < 6 pEC50

Binder: YSHGTFTSDYSKYLDSARAQEFVK(Formula II)WLEDEPSSGAPPPS-NH2 (reading uncertain) [Compound B42]
- GluR pEC 50 [1]: 9.7 pEC50
- GLP-1R pEC 50 [2]: < 6 pEC50

Binder: YSHGTFTSDYSKYLDK(Formula III)KSAQEFV[Aib]WLEDEPSSGAPPPS-OH (reading uncertain) [Compound B15]
- GluR pEC 50 [1]: 9.9 pEC50
- GLP-1R pEC 50 [2]: < 6 pEC50

Binder: WSQGTFTSDYSKYLD[Aib]KRAQEFVK(Formula II)WLEDEPSSGAPPPS-OH (reading uncertain) [Compound B18]
- GluR pEC 50 [1]: 10.2 pEC50
- GLP-1R pEC 50 [2]: < 6 pEC50

Binder: YSQGTFTSDYSKYLDK(Formula III)ARAQEFVKWLEDEPKSKSPPPS-NH2 (reading uncertain) [Compound B39]
- GluR pEC 50 [1]: 10.9 pEC50
- GLP-1R pEC 50 [2]: 6 pEC50

Binder: YSHGTFTSDYSKYLDK(Formula III)ARAQEFVKWLEDEPSSGAPPPS-NH2 (reading uncertain) [Compound B47]
- GluR pEC 50 [1]: 10.8 pEC50
- GLP-1R pEC 50 [2]: < 6 pEC50
